Reference: US8030325B2, “Biosynthetic gene cluster for the production of a complex polyketide” (Wyeth LLC, priority 2004, dated 2011)

B1: GDNF: glial-derived neurotrophic factor, control (protein, UniProt P39905 78-211, looked up)
Glial cell line-derived …: SPDKQMAVLPRRERNRQAAAANPENSRGKGRRGQRGKNRGCVLTAIHLNVTDLGLGYETKEELIFRYCSGSCDAAETTYDKILKNLSRNRRLVSDKVGQACCRPIAFDDDLSFLDDNLVYHILRKHSAKRCGCI

Test system: mesencephalic dopanergic neuron cultures
Test: High-affinity 3H-DA uptake in ventral mesencephalic cultures, with or without MPP+ exposure
Format: cell-based, rat
Settings: for protection against MPP toxicity (3H-DA uptake): pre-treatment 1 hr or 24 hr, MPP+ 1 hr, recovery 24 hr or 48 hr
Experimental: Ventral mesencephalic cultures were prepared from E15 rat embryos and maintained for […] before experimentation according to the method of Pong et al., J Neurochem.
Cultures were then exposed to 10 μM 1-methyl-4-phenylpyridinium (MPP+) for 1 hr, in the presence of drug. After the 1 hr exposure, media was changed 3×, and fresh drug was added for an additional 24 hr or 48 hr.

Molecule | protection against MPP toxicity (3H-DA uptake) | DA uptake in normal mesencephalic dopanergic neuron cultures (normal cultures, no MPP+)
CC/C1=C\CC(/C(C)=C/C(C)C(C)O)OC(=O)C2CCCCN2C(=O)C(=O)C2(O)OC(CCC2C)CC(O)C(C)C(O)CC(O)CC(O)/C(C)=C/C(C)CC(C)C1O (stereo not drawn) [meridamycin] | partial, but significant protection | 
B1 | partial, but significant protection | enhanced DA uptake
